# Data reported in IntAct's records for PubMed 11231575.
# Target: arp3_bovin ACTR3 (UniProt P61157)
row,Substance,effect of a mutation on the interaction
1,"Src substrate cortactin (Mus musculus), Q60598 W22A",disrupting interaction
2,"Src substrate cortactin (Mus musculus), Q60598 D20G;D21A",disrupting interaction
